This experiment concerns the target FITC-labeled CD4 (UniProt P01730). In words: size exclusion HPLC (Biosil 250); CD4-FITC alone eluted at 2.67 minutes. (In general: Size exclusion chromatography separates by hydrodynamic size, large species first.)

The record followed here is patent EP1433851A2.

For “oligomeric gp140 US4 (o-gp140 US4), purified from CHO cell culture supernatant”, the retention time of the complex turned out to be 1.9 min.
Consider “US4 gp120, purified from CHO cell culture supernatant”, for which the retention time of the complex was determined as 2.17 min.
